Read-outs that look alike come from different tables or passages of the source.

The source of these data is doi:10.1101/694653 (bioRxiv, 2019).

What all share (test): cross-linking
Data set [1] addresses A. aegypti GPA2-FLAG (Aedes aegypti) (UniProt C6SUP2).
Data set [2] has the same target. This is another data set of the same source.
Data set [3] addresses A. aegypti GPA2-His (Aedes aegypti) (UniProt C6SUP2).
Data set [4] deals with the molecule itself.
Data set [5] concerns the molecule itself. This is another data set of the same source.

On to “A. aegypti GPA2-FLAG (from UniProt C6SUP2 1-120) (natural protein)”, for which the stoichiometry N in data set [1] and in data set [2] was 2 each time. In data set [3], “A. aegypti GPA2-His (from UniProt C6SUP2 1-120) (natural protein)” yielded a stoichiometry N of 2.

B1: H. sapiens GPA2-FLAG (natural protein, UniProt Q96T91 24-129, looked up)
chain: QEAVIPGCHLHPFNVTVRSDRQGTCQGSHVAQACVGHCESSAFPSRYSVLVASGYRHNITSVSQCCTISGLKKVKVQLQCVGSRREELEIFTARACQCDMCRLSRY
Regarding B1, in “cross-linking [4]”, the “stoichiometry N” value was 2.

B2: A. aegypti GPB5-His (natural protein, Aedes aegypti, UniProt C6SUR0 1-162, looked up)
chain: VEDSLFISGFEKKAPMLGCHKRVFTYRISQADSKGRECWDHVSVWSCHGRCDSNEISDWRFPYKRSHHPVCMHAGRTRSVATLRHCHPEADAEAKLYEYMEPKSCSCQTCTSMDTSCEGPKQLSTDAATKIFQIDDEEIESEYA
For the molecule B2, the “stoichiometry N” value in “cross-linking [5]” was 2.

B3: H. sapiens GPB5-His (natural protein, UniProt Q86YW7 25-130, looked up)
chain: ASSGNLRTFVGCAVREFTFLAKKPGCRGLRITTDACWGRCETWEKPILEPPYIEAHHRVCTYNETKQVTVKLPNCAPGVDPFYTYPVAIRCDCGACSTATTECETI
For B3, the “stoichiometry N” value in the data set “cross-linking [4]” was 2.

As usually defined, the stoichiometry N is a count of units in the complex or per binding partner.
